From article PMC5426458, “A practical strategy to design and develop an isoform-specific fluorescent probe for a target enzyme: CYP1A1 as a case study” (Chemical Science, 2016)

Assays:
CYP1A1 = target: T1, CYP1A1 (Homo sapiens, UniProt P04798); assay: inhibition of NBCeN-O-dechloroethylation in human tissue preparations and living cells ([…] in cells); format: cell-based
T1 construct: endogenous CYP1A1 in human tissue microsomes, A549 and SKOV3 cells
T1 sequence (P04798 1-512): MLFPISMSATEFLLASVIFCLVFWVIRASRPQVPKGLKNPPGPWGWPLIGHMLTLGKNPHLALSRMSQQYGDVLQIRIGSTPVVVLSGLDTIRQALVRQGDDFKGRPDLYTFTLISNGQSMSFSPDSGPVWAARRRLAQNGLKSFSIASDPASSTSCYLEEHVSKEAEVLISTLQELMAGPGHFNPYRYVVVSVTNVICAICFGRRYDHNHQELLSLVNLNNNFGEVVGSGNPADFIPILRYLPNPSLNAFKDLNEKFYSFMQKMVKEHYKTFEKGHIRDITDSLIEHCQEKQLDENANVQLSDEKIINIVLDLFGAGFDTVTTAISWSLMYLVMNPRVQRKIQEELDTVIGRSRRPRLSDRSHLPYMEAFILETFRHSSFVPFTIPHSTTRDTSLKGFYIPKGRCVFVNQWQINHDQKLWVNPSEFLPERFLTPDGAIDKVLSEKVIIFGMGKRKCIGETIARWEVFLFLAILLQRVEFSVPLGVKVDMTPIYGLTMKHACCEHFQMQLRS

purified protein = substrate: CCCCN1C(=O)c2cccc3c(OCCCl)ccc(c23)C1=O; assay: purified protein; format: biochemical, Homo sapiens; conditions: heme

Oc1ccc(/C=C/c2cc(O)cc(O)c2)cc1 [resveratrol]
inhibition of NBCeN-O-dechloroethylation in human tissue preparations and living (CYP1A1): formation of NBHN could be potently inhibited by ABT (a broad CYP inhibitor) and resveratrol (a selective inhibitor of CYP1A1)

B1: CYP1A1 (Homo sapiens) (protein)
chain: T1 sequence (P04798 1-512)
notes: recombinant CYP1A1
Km (purified protein; NADPH active site, O-chloroethyl group cleaved, docking suggests pi-pi stacking with Phe-224): 0.84 µM

B2: CYP1A2 (Homo sapiens) (protein)
chain: ALSQSVPFSATELLLASAIFCLVFWVLKGLRPRVPKGLKSPPEPWGWPLLGHVLTLGKNPHLALSRMSQRYGDVLQIRIGSTPVLVLSRLDTIRQALVRQGDDFKGRPDLYTSTLITDGQSLTFSTDSGPVWAARRRLAQNALNTFSIASDPASSSSCYLEEHVSKEAKALISRLQELMAGPGHFDPYNQVVVSVANVIGAMCFGQHFPESSDEMLSLVKNTHEFVETASSGNPLDFFPILRYLPNPALQRFKAFNQRFLWFLQKTVQEHYQDFDKNSVRDITGALFKHSKKGPRASGNLIPQEKIVNLVNDIFGAGFDTVTTAISWSLMYLVTKPEIQRKIQKELDTVIGRERRPRLSDRPQLPYLEAFILETFRHSSFLPFTIPHSTTRDTTLNGFYIPKKCCVFVNQWQVNHDPELWEDPSEFRPERFLTADGTAINKPLSEKMMLFGMGKRRCIGEVLAKWEIFLFLAILLQQLEFSVPPGVKVDLTPIYGLTMKHARCEHVQARLRFSIN
notes: recombinant CYP1A2
Km (purified protein; NADPH): 0.81 µM
